According to the MegaScale stability set (Tsuboyama et al. 2023):

B1: EEHEE_rd4_0647 (parent)
chain: MQVTWGNVTVTFSNPEEAKKYAEKVARKLGGQVELHNGQFRIK

Variants of: B1
Assay: folding stability dG (cDNA display proteolysis); higher = more stable
Details: PBS, room temperature

Compared with MQVTWGNVTVTFSNPEEAKKYAEKVARKLGGQVELLNGQFRIK [H36L], MQVTWGNVTVTFSNPEEAKKYAEKVARKLGGQVELANGQFRIK [H36A] is lower in “folding stability dG” value: 2.89 kcal/mol for the first, 2.51 kcal/mol for the second.

Going from MQVTWGNVTVTFSNPEEAKKYAEKVARKLGGQVELWNGQFRIK [H36W] to MQVTWGNVTVTFSNPEEAKKYAEKVARKLGGQVELSNGQFRIK [H36S], the “folding stability dG” value falls from 2.85 kcal/mol to 2.6 kcal/mol.

Compared with MQVTWGNVTVTFSNPEEAKKYAEKVARKLGGQVELGNGQFRIK [H36G], MQVTWGNVTVTFSNPEEAKKYAEKVARKLGGQVELENGQFRIK [H36E] is higher in “folding stability dG” value: 1.8 kcal/mol for the first, 2.78 kcal/mol for the second.

First: MQVTWGNVTVTFSNPEEAKKYAEKVARKLGGQVELNNGQFRIK [H36N]
Second: MQVTWGNVTVTFSNPEEAKKYAEKVARKLGGQVELCNGQFRIK [H36C]
The “folding stability dG” value of the first is lower: 2.33 kcal/mol for the first, 3.37 kcal/mol for the second.

Going from MQVTWGNVTVTFSNPEEAKKYAEKVARKLGGQVELPNGQFRIK [H36P] to MQVTWGNVTVTFSNPEEAKKYAEKVARKLGGQVELRNGQFRIK [H36R], the “folding stability dG” value rises from 0.326 kcal/mol to 2.58 kcal/mol.

Compared with MQVTWGNVTVTFSNPEEAKKYAEKVARKLGGQVELDNGQFRIK [H36D], MQVTWGNVTVTFSNPEEAKKYAEKVARKLGGQVELMNGQFRIK [H36M] is higher in “folding stability dG” value: 2.53 kcal/mol for the first, 2.68 kcal/mol for the second.

Compared with MQVTWGNVTVTFSNPEEAKKYAEKVARKLGGQVELQNGQFRIK [H36Q], MQVTWGNVTVTFSNPEEAKKYAEKVARKLGGQVELYNGQFRIK [H36Y] is higher in “folding stability dG” value: 2.54 kcal/mol for the first, 2.79 kcal/mol for the second.

Compared with MQVTWGNVTVTFSNPEEAKKYAEKVARKLGGQVELVNGQFRIK [H36V], MQVTWGNVTVTFSNPEEAKKYAEKVARKLGGQVELTNGQFRIK [H36T] is lower in “folding stability dG” value: 3.35 kcal/mol for the first, 2.6 kcal/mol for the second.

Going from MQVTWGNVTVTFSNPEEAKKYAEKVARKLGGQVELFNGQFRIK [H36F] to MQVTWGNVTVTFSNPEEAKKYAEKVARKLGGQVELINGQFRIK [H36I], the “folding stability dG” value rises from 2.79 kcal/mol to 3.34 kcal/mol.

First: MQVTWGNVTVTFSNPEEAKKYAEKVARKLGGQVELKNGQFRIK [H36K]
Second: MQVTWGNVTVTFSNPEEAKKYAEKVARKLGGQVELHNDQFRIK [G38D]
The “folding stability dG” value of the first is higher: 2.66 kcal/mol for the first, 1.91 kcal/mol for the second.

Going from MQVTWGNVTVTFSNPEEAKKYAEKVARKLGGQVELHNAQFRIK [G38A] to MQVTWGNVTVTFSNPEEAKKYAEKVARKLGGQVELHNIQFRIK [G38I], the “folding stability dG” value falls from 1.32 kcal/mol to 0.887 kcal/mol.

First: MQVTWGNVTVTFSNPEEAKKYAEKVARKLGGQVELHNKQFRIK [G38K]
Second: MQVTWGNVTVTFSNPEEAKKYAEKVARKLGGQVELHNLQFRIK [G38L]
The “folding stability dG” value of the first is higher: 1.81 kcal/mol for the first, 1.46 kcal/mol for the second.

Going from MQVTWGNVTVTFSNPEEAKKYAEKVARKLGGQVELHNMQFRIK [G38M] to MQVTWGNVTVTFSNPEEAKKYAEKVARKLGGQVELHNFQFRIK [G38F], the “folding stability dG” value rises from 1.65 kcal/mol to 1.73 kcal/mol.

Going from MQVTWGNVTVTFSNPEEAKKYAEKVARKLGGQVELHNCQFRIK [G38C] to MQVTWGNVTVTFSNPEEAKKYAEKVARKLGGQVELHNNQFRIK [G38N], the “folding stability dG” value falls from 2.88 kcal/mol to 2.46 kcal/mol.

Going from MQVTWGNVTVTFSNPEEAKKYAEKVARKLGGQVELHNEQFRIK [G38E] to MQVTWGNVTVTFSNPEEAKKYAEKVARKLGGQVELHNHQFRIK [G38H], the “folding stability dG” value rises from 1.44 kcal/mol to 3.93 kcal/mol.

Compared with MQVTWGNVTVTFSNPEEAKKYAEKVARKLGGQVEWHNGQFRIK [L35W], MQVTWGNVTVTFSNPEEAKKYAEKVARKLGGQVESHNGQFRIK [L35S] is lower in “folding stability dG” value: 2.63 kcal/mol for the first, 2.04 kcal/mol for the second.

First: MQVTWGNVTVTFSNPEEAKKYAEKVARKLGGQVEKHNGQFRIK [L35K]
Second: MQVTWGNVTVTFSNPEEAKKYAEKVARKLGGQVERHNGQFRIK [L35R]
The “folding stability dG” value of the first is lower: 2.11 kcal/mol for the first, 2.13 kcal/mol for the second.

Going from MQVTWGNVTVTFSNPEEAKKYAEKVARKLGGQVEQHNGQFRIK [L35Q] to MQVTWGNVTVTFSNPEEAKKYAEKVARKLGGQVEMHNGQFRIK [L35M], the “folding stability dG” value rises from 2.28 kcal/mol to 2.82 kcal/mol.

First: MQVTWGNVTVTFSNPEEAKKYAEKVARKLGGQVEYHNGQFRIK [L35Y]
Second: MQVTWGNVTVTFSNPEEAKKYAEKVARKLGGQVENHNGQFRIK [L35N]
The “folding stability dG” value of the first is higher: 3.14 kcal/mol for the first, 1.96 kcal/mol for the second.

Going from MQVTWGNVTVTFSNPEEAKKYAEKVARKLGGQVEVHNGQFRIK [L35V] to MQVTWGNVTVTFSNPEEAKKYAEKVARKLGGQVEPHNGQFRIK [L35P], the “folding stability dG” value falls from 2.83 kcal/mol to 1.3 kcal/mol.

Going from MQVTWGNVTVTFSNPEEAKKYAEKVARKLGGQVETHNGQFRIK [L35T] to MQVTWGNVTVTFSNPEEAKKYAEKVARKLGGQVELHHGQFRIK [N37H], the “folding stability dG” value falls from 2.24 kcal/mol to 2.14 kcal/mol.

Compared with MQVTWGNVTVTFSNPEEAKKYAEKVARKLGGQVELHGGQFRIK [N37G], MQVTWGNVTVTFSNPEEAKKYAEKVARKLGGQVELHIGQFRIK [N37I] is lower in “folding stability dG” value: 2.32 kcal/mol for the first, 1.41 kcal/mol for the second.

First: MQVTWGNVTVTFSNPEEAKKYAEKVARKLGGQVELHRGQFRIK [N37R]
Second: MQVTWGNVTVTFSNPEEAKKYAEKVARKLGGQVELHAGQFRIK [N37A]
The “folding stability dG” value of the first is lower: 1.92 kcal/mol for the first, 2.05 kcal/mol for the second.

Going from MQVTWGNVTVTFSNPEEAKKYAEKVARKLGGQVELHWGQFRIK [N37W] to MQVTWGNVTVTFSNPEEAKKYAEKVARKLGGQVELHPGQFRIK [N37P], the “folding stability dG” value rises from 1.32 kcal/mol to 1.58 kcal/mol.

Compared with MQVTWGNVTVTFSNPEEAKKYAEKVARKLGGQVELHEGQFRIK [N37E], MQVTWGNVTVTFSNPEEAKKYAEKVARKLGGQVELHMGQFRIK [N37M] is lower in “folding stability dG” value: 2.56 kcal/mol for the first, 2.11 kcal/mol for the second.

First: MQVTWGNVTVTFSNPEEAKKYAEKVARKLGGQVELHVGQFRIK [N37V]
Second: MQVTWGNVTVTFSNPEEAKKYAEKVARKLGGQVELHLGQFRIK [N37L]
The “folding stability dG” value of the first is lower: 1.39 kcal/mol for the first, 2.14 kcal/mol for the second.

Compared with MQVTWGNVTVTFSNPEEAKKYAEKVARKLGGQVELHYGQFRIK [N37Y], MQVTWGNVTVTFSNPEEAKKYAEKVARKLGGQVELHQGQFRIK [N37Q] is higher in “folding stability dG” value: 1.7 kcal/mol for the first, 2.27 kcal/mol for the second.

First: MQVTWGNVTVTFSNPEEAKKYAEKVARKLGGQVELHFGQFRIK [N37F]
Second: MQVTWGNVTVTFSNPEEAKKYAEKVARKLGGQVELHDGQFRIK [N37D]
The “folding stability dG” value of the first is lower: 1.9 kcal/mol for the first, 2.69 kcal/mol for the second.

First: MQVTWGNVTVTFSNPEEAKKYAEKVARKLGGQVELHSGQFRIK [N37S]
Second: MQVTWGNVTVTFSNPEEAKKYAEKVARKLGGQVELHKGQFRIK [N37K]
The “folding stability dG” value of the first is lower: 1.93 kcal/mol for the first, 2.26 kcal/mol for the second.

With MQVTWGNVTVTFSNPEEAKKYAEKVARKLGGQVELHTGQFRIK [N37T] the “folding stability dG” value was 1.36 kcal/mol.
